# Data taken from patent US11053304 (CENTIVAX, dated 2021).
# Where two headings read alike, the source gives them in different places.
# B1: COVID19_P19_C12 (scFv, V domains shown)
# VH: EVQLVESGGGLVQPGGSLRLSCAASGFTFRNYAMHWVRQAPGKGLEWVSAVSSSGGSPYYADSVKGRFTISRDNSKNTLYLQMNSLRAEDTAVYYCVTNMDNSRDYFPHYFHDMDVWGQGTLVTVSS
# VL: DIVMTQSPLSLPVTPGEPASISCRSSQSLVHSDGDNYLNWYLQKPGQSPQLLIYSGSYRASGVPDRFSGSGSGTDFTLKISRVEAEDVGVYYCMQGTHWPLTFGGGTKVEIKR
# B2: COVID19_P20_F02 (scFv, V domains shown)
# VH: EVQLVESGGGLVQPGGSLRLSCAASGFAFSNYGMHWIRQAPGKGLEWVSGIDGSGGTAHYADSVKGRFTISRDNSKNTLYLQMNSLRAEDTAVYYCVTNMDNSRDYFPHYFHDMDVWGQGTLVTVSS
# VL: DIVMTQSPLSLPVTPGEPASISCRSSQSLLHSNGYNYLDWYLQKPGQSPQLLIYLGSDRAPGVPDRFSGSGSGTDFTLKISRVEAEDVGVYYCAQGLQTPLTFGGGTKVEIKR
# B3: COVID19_P20_G06 (scFv, V domains shown)
# VH: EVQLVESGGGLVQPGGSLRLSCAASGFTFSNSDMNWVRQAPGKGLEWVSGISGGGAGTYYADSVKGRFTISRDNSKNTLYLQMNSLRAEDTAVYYCVTYRDNSRDYFPHYFHDMDVWGQGTLVTVSS
# VL: DIVMTQSPLSLPVTPGEPASISCRSSQSLVHSNGDTYLDWYLQKPGQSPQLLIYLGSIRAPGVPDRFSGSGSGTDFTLKISRVEAEDVGVYYCQQSYSTPWTFGGGTKVEIKR
# B4: COVID19_P19_B09 (scFv, V domains shown)
# VH: EVQLVESGGGLVQPGGSLRLSCAASGFTFSSHTIAWVRQAPGKGLEWLSHISSSGSTTYYADSVKGRFTISRDNSKNTLYLQMNSLRAEDTAVYYCVTQRDNSRDMSPHYFHDMDVWGQGTLVTVSS
# VL: DIVMTQSPLSLPVTPGEPASISCRSSQSLLDSNGFNYLDWYLQKPGQSPQLLIYLGSSRAPGVPDRFSGSGSGTDFTLKISRVEAEDVGVYYCQQSYNTPWTFGGGTKVEIKR
# B5: COVID19_P19_E01 (scFv, V domains shown)
# VH: EVQLVESGGGLVQPGGSLRLSCAASGFTFSSYAMHWVRQAPGKGLEWVAVVSRSGGSTFYADSVKGRFTISRDNSKNTLYLQMNSLRAEDTAVYYCVTQRDNSRDYFPHYFHDMDVWGQGTLVTVSS
# VL: DIVMTQSPLSLPVTPGEPASISCRSSQSLVHSNGDTYLDWYLQKPGQSPQLLIYLGSIRAPGVPDRFSGSGSGTDFTLKISRVEAEDVGVYYCQQSYSTPWTFGGGTKVEIKR
# B6: COVID19_P19_C03 (scFv, V domains shown)
# VH: EVQLVESGGGLVQPGGSLRLSCAASGFTFSNSDMNWVRQAPGKGLEWVSRINGDGSTTGYADSVKGRFTISRDNSKNTLYLQMNSLRAEDTAVYYCVTTGDNSRDYFPHYFHDMDVWGQGTLVTVSS
# VL: DIVMTQSPLSLPVTPGEPASISCRSSQSLLHSNGDTYLDWYLQKPGQSPQLLIYLGSIRAPGVPDRFSGSGSGTDFTLKISRVEAEDVGVYYCQQSYITPWTFGGGTKVEIKR
# Tests used:
# Experiment in all cases: SPR, scFv captured via anti-V5, RBD as analyte
# [1] = molecular target: T1, SARS-CoV-2 Receptor Binding Domain (RBD) protein (SARS-CoV-2, UniProt P0DTC2 319-541)
# [2] = molecular target: SARS-CoV-1 Receptor Binding Domain (RBD) protein (SARS-CoV-1, UniProt P59594 306-527)
# [3] = molecular target: MERS Receptor Binding Domain (RBD) protein (MERS coronavirus, UniProt K9N5Q8 367-606)
# [4] = molecular target: T1, SARS-CoV-2 Receptor Binding Domain …; remark: listed apart in the source
Binder,Kd [1] [nM],binding result [2],binding result [3],Kd [4] [nM],koff [4] [s⁻¹],kon [4] [M⁻¹ s⁻¹]
B1,< 50,no binding (tested: up to 300 nM),no binding (tested: up to 300 nM),–,–,–
B2,< 50,no binding (tested: up to 300 nM),no binding (tested: up to 300 nM),17.8,0.00081,45500
B3,< 50,no binding (tested: up to 300 nM),no binding (tested: up to 300 nM),8.95,0.000834,93200
B4,< 50,no binding (tested: up to 300 nM),no binding (tested: up to 300 nM),15.9,0.00313,197000
B5,< 50,no binding (tested: up to 300 nM),no binding (tested: up to 300 nM),41.7,0.00644,155000
B6,< 50,no binding (tested: up to 300 nM),no binding (tested: up to 300 nM),35.3,0.0058,164000
